Data on one sequence can be found in paper PMC11705820.

Changes are numbered by the printed parent chain.

Series [1] addresses T1, MexR Gln55Pro Q55P (Pseudomonas aeruginosa clinical isolate Pae d14 Green) (UniProt P52003).
T1 sequence: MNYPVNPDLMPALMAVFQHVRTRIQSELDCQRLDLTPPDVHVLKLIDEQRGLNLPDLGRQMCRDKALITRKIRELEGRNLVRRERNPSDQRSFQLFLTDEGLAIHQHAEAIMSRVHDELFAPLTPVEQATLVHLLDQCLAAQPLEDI
Description: EMSA. (A gel shift assay detects complexes by their altered migration in electrophoresis.)

In series [2] the target is T2, MexR wild-type (Pseudomonas aeruginosa clinical isolate Pae d1 Green) (UniProt P52003).
T2 sequence: T1 sequence with P55Q
Description: EMSA.

For the sequence “GTTGCATAGCGTTGTCCTCATGAGCGAAAGCGGCCGATGCAGCGTGAAGGCGCTGCACCGGCTCGAAGAAGGCAGGCAAAATACTTACATTCATAGGTGTTTGTAAACGTCCGAAAGCCTCGCGTGAAAACACCTGAAACGTTTTAGCTCGATGGCCGGTTATCCACCCGGCGCCATGGCCCATATTCAGAACCTGAAACAAGGTTGATAAGGTCAACTAAAATAAGCAAAATAGTTGACTGGATCAACCACATTTACATTAGGTTTACTCGGCCAAACCAATGAACTACC (double strand) [mexR-mexAB intergenic region 291 bp]”, the binding result is on record as “no binding” in series [1] and “binds” in series [2].
